Experimental findings from publication PMC5435347 are described below.

In the assay the target is YFP-MKT1 (Trypanosoma brucei) (UniProt Q587E3). As to the kind of experiment: co-IP; extracts of bloodstream-form trypanosomes immunoprecipitated with anti-GFP (GBP beads) for YFP-MKT1, Western blot for V5 or myc; 100-150 mM NaCl, 2 h at 4°C; with or without RNase; control cells without YFP-MKT1.
Sequence of UniProt Q587E3 (Q587E3 whole entry): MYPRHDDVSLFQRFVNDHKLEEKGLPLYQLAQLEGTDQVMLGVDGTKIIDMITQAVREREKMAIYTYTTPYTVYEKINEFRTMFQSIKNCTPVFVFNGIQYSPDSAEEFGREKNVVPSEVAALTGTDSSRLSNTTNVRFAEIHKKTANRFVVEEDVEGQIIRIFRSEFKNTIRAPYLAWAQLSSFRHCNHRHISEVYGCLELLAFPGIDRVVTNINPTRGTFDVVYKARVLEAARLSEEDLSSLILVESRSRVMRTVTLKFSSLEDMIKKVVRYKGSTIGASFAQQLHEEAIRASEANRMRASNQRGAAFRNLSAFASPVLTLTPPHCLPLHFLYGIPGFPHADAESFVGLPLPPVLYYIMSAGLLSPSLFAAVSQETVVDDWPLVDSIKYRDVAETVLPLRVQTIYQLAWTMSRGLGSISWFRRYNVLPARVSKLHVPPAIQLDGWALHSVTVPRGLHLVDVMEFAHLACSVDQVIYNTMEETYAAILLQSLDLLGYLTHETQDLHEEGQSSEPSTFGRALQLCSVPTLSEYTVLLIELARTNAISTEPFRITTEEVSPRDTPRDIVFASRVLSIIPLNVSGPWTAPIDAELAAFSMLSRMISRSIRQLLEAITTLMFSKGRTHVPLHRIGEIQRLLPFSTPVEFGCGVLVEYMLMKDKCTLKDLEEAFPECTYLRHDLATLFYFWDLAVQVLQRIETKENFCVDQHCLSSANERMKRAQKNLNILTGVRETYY

The substance V5-ZC3H32 (natural protein) returned a proportion pulled down of less than 1%.

As to ZC3H32-myc (natural protein), the proportion pulled down was less than 1%.
